# Source: paper PMC9120461, “Structural insights into the mechanism of pancreatic KATP channel regulation by nucleotides” (Nature Communications, 2022)
# Tests used:
# [1] = target: T1, SUR1 from Mesocricetus auratus (maSUR1), as the SUR1 part of H175K_(cryo-EM) (Mesocricetus auratus, UniProt A0A1U7R319 1-1582); assay: cryo-EM structure; purified H175K_(cryo-EM) fusion protein (13.5 uM octamer) in TBS (20 mM Tris-HCl pH 7.5, 150 mM NaCl) with 0.1% digitonin, with 5 mM MgCl2, 0.5 mM ADP, 0.5 mM NN414 and 10 uM PI(4,5)P2diC8; closed and pre-open states resolved in the same sample; settings: both partners purified
# T1 construct: SUR1 from Mesocricetus auratus (maSUR1); In the assay it stood on one chain with Kir6.2 H175K: its C terminus is joined to the 41-residue linker and the Prescission site; also called SUR1 subunit; source: purified in digitonin (Streptactin 4FF resin, Superose 6 increase)
# T1 sequence (A0A1U7R319 entry or part of it H175K H175K): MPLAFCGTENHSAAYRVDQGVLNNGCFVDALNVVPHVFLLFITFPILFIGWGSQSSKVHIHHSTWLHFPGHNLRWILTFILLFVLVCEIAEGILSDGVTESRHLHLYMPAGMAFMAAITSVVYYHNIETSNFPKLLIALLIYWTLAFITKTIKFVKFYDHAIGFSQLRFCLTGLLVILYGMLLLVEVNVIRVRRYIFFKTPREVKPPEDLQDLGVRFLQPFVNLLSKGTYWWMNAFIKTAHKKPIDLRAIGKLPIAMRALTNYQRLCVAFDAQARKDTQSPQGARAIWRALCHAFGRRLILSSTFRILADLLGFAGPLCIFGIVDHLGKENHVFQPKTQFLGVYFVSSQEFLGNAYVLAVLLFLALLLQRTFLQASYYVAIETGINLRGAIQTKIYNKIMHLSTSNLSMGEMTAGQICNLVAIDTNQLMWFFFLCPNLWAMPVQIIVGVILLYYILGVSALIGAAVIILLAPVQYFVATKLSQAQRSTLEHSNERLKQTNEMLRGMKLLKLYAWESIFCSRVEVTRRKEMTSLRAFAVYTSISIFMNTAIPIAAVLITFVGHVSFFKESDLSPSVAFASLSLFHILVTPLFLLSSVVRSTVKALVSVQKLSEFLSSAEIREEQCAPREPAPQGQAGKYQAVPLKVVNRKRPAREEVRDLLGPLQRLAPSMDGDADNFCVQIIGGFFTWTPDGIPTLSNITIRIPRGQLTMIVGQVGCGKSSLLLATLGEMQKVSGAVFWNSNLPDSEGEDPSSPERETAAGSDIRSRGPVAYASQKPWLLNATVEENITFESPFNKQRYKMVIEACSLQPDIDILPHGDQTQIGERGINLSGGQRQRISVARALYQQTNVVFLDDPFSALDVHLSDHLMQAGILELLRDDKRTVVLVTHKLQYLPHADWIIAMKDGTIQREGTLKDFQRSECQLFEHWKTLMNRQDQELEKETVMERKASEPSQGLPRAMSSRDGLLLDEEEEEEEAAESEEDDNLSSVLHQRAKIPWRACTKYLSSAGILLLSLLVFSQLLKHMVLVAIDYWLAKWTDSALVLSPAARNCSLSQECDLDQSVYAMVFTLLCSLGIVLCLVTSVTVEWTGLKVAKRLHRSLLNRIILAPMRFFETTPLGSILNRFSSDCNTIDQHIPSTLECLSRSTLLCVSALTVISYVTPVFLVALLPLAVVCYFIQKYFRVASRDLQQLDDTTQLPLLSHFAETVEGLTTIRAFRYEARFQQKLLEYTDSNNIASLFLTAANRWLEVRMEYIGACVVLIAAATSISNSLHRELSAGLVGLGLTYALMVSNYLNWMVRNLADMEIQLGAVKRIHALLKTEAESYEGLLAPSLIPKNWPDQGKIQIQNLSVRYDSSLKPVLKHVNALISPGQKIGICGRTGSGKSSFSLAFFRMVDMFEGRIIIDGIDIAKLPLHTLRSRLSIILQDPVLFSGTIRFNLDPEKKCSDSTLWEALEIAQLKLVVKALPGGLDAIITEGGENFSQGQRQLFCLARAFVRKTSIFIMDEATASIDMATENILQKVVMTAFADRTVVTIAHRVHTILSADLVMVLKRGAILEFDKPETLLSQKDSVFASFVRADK
# [2] = target: the molecule itself; assay: as above
binder,measurement,setting,value
"Kir6.2 from Mus musculus (mmKir6.2) H175K mutant, as the Kir6.2 part of H175K_(cryo-EM) (natural protein, UniProt Q61743 2-390, looked up, Kir6.2 from Mus musculus (mmKir6.2), first Met removed, H175K mutant; In the assay it stood on one chain with SUR1: its N terminus is joined to the Prescission site and the 41-residue linker after SUR1; source: purified in digitonin (Streptactin 4FF resin, Superose 6 increase)) LSRKGIIPEEYVLTRLAEDPAEPRYRTRERRARFVSKKGNCNVAHKNIREQGRFLQDVFTTLVDLKWPHTLLIFTMSFLCSWLLFAMVWWLIAFAHGDLAPGEGTNVPCVTSIHSFSSAFLFSIEVQVTIGFGGRMVTEECPLAILILIVQNIVGLMINAIMLGCIFMKTAQAKRRAETLIFSKHAVITLRHGRLCFMLRVGDLRKSMIISATIHMQVVRKTTSPEGEVVPLHQVDIPMENGVGGNGIFLVAPLIIYHVIDSNSPLYDLAPSDLHHHQDLEIIVILEGVVETTGITTQARTSYLADEILWGQRFVPIVAEEDGRYSVDYSKFGNTIKVPTPLCTARQLDEDRSLLDALTLASSRGPLRKRSVAVAKAKPKFSISPDSLS",binding result,[1],binds
same,binding result,[2],binds
